No end group written: not given here.

Assay [1] concerns the target peptide A16 of the second library (aa 12-20, K16 to alanine) (biotinylated (position not given)). The experiment in a line: ELISA, biotinylated alanine-substituted peptides on streptavidin plate, O.D. 405 nm [middle chart, Figure 2]. The source says: (§1) One library comprised a total of 33 biotinylated peptides covering the complete amino acid (aa) sequence of Aβ1-42 (produced by Mimotopes and purchased from ANAWA Trading SA), the second library contains biotinylated peptides using peptide 12 (aa12-20 of Aβ) from the first peptide library and substituting each aa in the sequence by an alanine (see table 8 below), and the third library contains biotinylated peptides 13, 14, or 15 (aa 13-21, 14-22 or 15-23 of Aβ) and substituting in each case the last amino acids to an alanine or to a glycine for aa 21 which is already an alanine (see table 9 below). A biotinylated complete Aβ1-42 peptide was used as positive control (Bachem). Epitope mapping was done according to the manufacturer's (Mimotopes) instructions. Briefly, Streptavidin coated plates (NUNC) were blocked with 0.1% BSA in PBS overnight at 4° C. After washing with PBS-0.05% Tween 20, plates were coated for 1 hour at RT with the different peptides from the library, diluted in 0.1% BSA, 0.1% Sodium Azide in PBS to a final concentration of 10 μM. […] Plates were washed again and incubated with alkaline phosphatase conjugated goat anti human IgG for 1 h at RT.

Assay [2] concerns the target T1, peptide A17 of the second library (aa 12-20, L17 to alanine) (also: biotinylated, position not given here).
T1 peptide: VHHQKAVFF
The assay is described as above.
Source text: as §1

Assay [3] deals with peptide A19 of the second library (aa 12-20, F19 to alanine) (biotinylated (position not given)). The description is as above.
Source text: as §1

Assay [4] deals with T2, peptide A20 of the second library (aa 12-20, F20 to alanine) (also: biotinylated, position not given here).
T2 peptide: VHHQKLVFA
The description is as above.
Source text: as §1

Assay [5] addresses T3, amyloid beta 1-42 monomers (UniProt P05067 672-713).
T3 construct: domain: amyloid beta 1-42; also called Aβ1-42 monomers; amyloid monomers
Kind of assay: ELISA on coated amyloid (55 µg/ml); mC2 at 0.156 ug/ml. On the procedure:
(§2) In order to evaluate the specificity of mC2 to different stages of polymerized amyloid protein, monomeric, polymeric soluble and fibrillic amyloid, an ELISA coated with these different stages of polymeric beta-amyloid was performed (FIG. 9). Monomers were prepared according to a modified method published by (Klein, 2002), soluble polymeric amyloid beta according to (Barghorn et al., 2005), whereas fibers were performed by incubation of amyloid (Bachem, Switzerland) with a final concentration of 1 μg/μl in Tris/HCl pH 7.4 at 37° C. for 5 days followed by a centrifugation step (10,000 rpm for 5 minutes). Then amyloid polymers were coated on an ELISA plates with a final concentration of 55 μg/ml and binding affinity ELISA by using an anti-mouse IgG monoclonal antibody (Jackson) labelled with alkaline phosphate was performed.

The target in the next assay is T4, amyloid beta 1-42 fibers (UniProt P05067 672-713).
T4 construct: domain: amyloid beta 1-42; Many copies per fiber; also called Aβ1-42 fibers; fibrillar Aβ1-42
The description is as above. On the procedure: as §2

Assay [6] deals with T5, soluble polymeric amyloid beta (oligomers) (UniProt P05067 672-713).
T5 construct: domain: amyloid beta 1-42; also called amyloid oligomers; Abeta oligomer
The assay is described as above. The protocol:
as §2

T5 sequence (P05067 672-713 limits assumed): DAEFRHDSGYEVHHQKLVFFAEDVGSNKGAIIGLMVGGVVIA
T3 sequence (P05067 672-713 limits assumed): as above
T4 sequence (P05067 672-713 limits assumed): as above

B1: humanized anti-human amyloid beta monoclonal antibody hC2 (antibody, human IgG4 S228P, kappa, V domains shown)
VH: EVQLVESGGGLVQPGGSLRLSCAASGFTFSSYGMSWVRQAPGKGLELVASINSNGGSTYYPDSVKGRFTISRDNAKNSLYLQMNSLRAEDTAVYYCASGDYWGQGTTVTVSS
VL: DIVMTQSPLSLPVTPGEPASISCRSSQSLVYSNGDTYLHWYLQKPGQSPQLLIYKVSNRFSGVPDRFSGSGSGTDFTLKISRVEAEDVGVYYCSQSTHVPWTFGQGTKVEIKR
notes: also called humanized antibody C2; humanized C2
As to B1, the binding result in assay [1], in assay [2], in assay [3] and in assay [4] was “no binding (tested: 200 ng/ml (single concentration))” each time.

B2: mouse monoclonal antibody ACI-01-Ab7C2 (antibody, V domains shown)
VH: EVQLVESGGGLVQPGGSLKLSCAASGFTFSSYGMSWVRQTPDKRLELVASINSNGGSTYYPDSVKGRFTISRDNAKNTLYLQMSSLKSEDTAMYYCASGDYWGQGSTLTVSS
VL: DVVMTQTPLSLPVSLGDQASISCRSSQSLVYSNGDTYLHWYLQKPGQSPKLLIYKVSNRFSGVPDRFSGSGSGTDFTLKISRVEAEDLGVYFCSQSTHVPWTFGGGTKLEIK
notes: also called mC2; mACI-01-Ab7 C2
Consider B2, for which the O.D in assay [5] worked out at 0.397 O.D; with amyloid beta 1-42 fibers, 0.631 O.D; in assay [6], 1.04 O.D.

For the origin of these results see US20100150906A1 (AC IMMUNE S A, published 2010).
